Measured values published in IntAct's records for PubMed 19375531.

B1: AH receptor-interacting protein (Homo sapiens), O00170 (parent)
chain: MADIIARLREDGIQKRVIQEGRGELPDFQDGTKATFHYRTLHSDDEGTVLDDSRARGKPMELIIGKKFKLPVWETIVCTMREGEIAQFLCDIKHVVLYPLVAKSLRNIAVGKDPLEGQRHCCGVAQMREHSSLGHADLDALQQNPQPLIFHMEMLKVESPGTYQQDPWAMTDEEKAKAVPLIHQEGNRLYREGHVKEAAAKYYDAIACLKNLQMKEQPGSPEWIQLDQQITPLLLNYCQCKLVVEEYYEVLDHCSSILNKYDDNVKAYFKRGKAHAAVWNAQEAQADFAKVLELDPALAPVVSRELRALEARIRQKDEEDKARFRGIFSH

Variants of: B1
Conditions: with hs90b_human HSP90AB1, P08238
Chain of hs90b_human HSP90AB1, P08238 (P08238 whole entry): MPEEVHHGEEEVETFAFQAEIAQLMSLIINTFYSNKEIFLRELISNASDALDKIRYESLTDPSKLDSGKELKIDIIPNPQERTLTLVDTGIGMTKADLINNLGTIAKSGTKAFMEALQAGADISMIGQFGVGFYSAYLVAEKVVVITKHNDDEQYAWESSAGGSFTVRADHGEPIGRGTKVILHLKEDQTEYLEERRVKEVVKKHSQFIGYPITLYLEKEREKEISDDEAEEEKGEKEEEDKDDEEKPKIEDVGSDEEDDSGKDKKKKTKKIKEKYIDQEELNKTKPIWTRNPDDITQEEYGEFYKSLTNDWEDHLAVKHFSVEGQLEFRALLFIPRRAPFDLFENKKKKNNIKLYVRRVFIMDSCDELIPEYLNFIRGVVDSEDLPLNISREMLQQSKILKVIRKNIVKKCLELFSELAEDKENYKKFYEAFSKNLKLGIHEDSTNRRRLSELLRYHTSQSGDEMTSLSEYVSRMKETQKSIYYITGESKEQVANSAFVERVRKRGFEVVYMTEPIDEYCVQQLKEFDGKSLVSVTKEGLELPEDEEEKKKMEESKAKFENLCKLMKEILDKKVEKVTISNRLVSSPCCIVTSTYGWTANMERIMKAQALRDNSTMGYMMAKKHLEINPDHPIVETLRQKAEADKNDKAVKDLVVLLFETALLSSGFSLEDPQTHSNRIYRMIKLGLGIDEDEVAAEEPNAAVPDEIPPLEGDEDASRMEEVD

effect of a mutation on the interaction	Variant
disrupting interaction	R271A
disrupting interaction	K266A
